Measurements as given in article PMC8115334.

What was measured:
[1] = biological target: Prolink (PK)-tagged CXC chemokine receptor 4 (CXCR4) (UniProt P61073)
[2] = biological target: Prolink (PK)-tagged CXC chemokine receptor 4 (CXCR4) (UniProt P61073); remark: listed apart in the source

Sequence of UniProt P61073 (P61073 whole entry): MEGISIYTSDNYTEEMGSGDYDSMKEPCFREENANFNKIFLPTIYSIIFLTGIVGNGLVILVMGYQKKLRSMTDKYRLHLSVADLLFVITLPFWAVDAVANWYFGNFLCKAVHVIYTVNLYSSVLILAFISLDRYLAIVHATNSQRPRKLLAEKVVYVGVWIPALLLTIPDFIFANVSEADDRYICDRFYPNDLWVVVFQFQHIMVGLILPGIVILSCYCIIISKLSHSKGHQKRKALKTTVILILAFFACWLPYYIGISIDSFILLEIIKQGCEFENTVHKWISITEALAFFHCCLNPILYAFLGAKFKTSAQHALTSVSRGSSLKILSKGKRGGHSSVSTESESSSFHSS

**Q.** For “CXC chemokine ligand 12 (CXCL12) (from UniProt P48061 22-93)”, which half-time of internalization of SNAP-tagged CXCR4 in HEK293A cells with 1 µM CXCL12 (constitutive: 22.1 min) [1] is on record?
**A.** 14.1 min

**Q.** And the real-time internalization of N-terminally SNAP-tagged CXCR4 in HEK293A cells, CXCL12 0.1 nM to 1 µM, potency of CXCL12 (pEC50) [1]?
**A.** 7.7 pEC50

**Q.** And the β-arrestin2 recruitment to PK-tagged CXCR4 (PathHunter, C2C12 cells), potency of CXCL12 (pEC50) [2]?
**A.** 7.7 pEC50
